Measurements taken from PMC5737801 (Nucleic Acids Research, 2017).
Positions count from the first letter of the chain named. Numbers in names are those of the source.

T1: GST-TyrRS fusion protein, wild type, full length (human, UniProt P54577 1-528)
T1 sequence: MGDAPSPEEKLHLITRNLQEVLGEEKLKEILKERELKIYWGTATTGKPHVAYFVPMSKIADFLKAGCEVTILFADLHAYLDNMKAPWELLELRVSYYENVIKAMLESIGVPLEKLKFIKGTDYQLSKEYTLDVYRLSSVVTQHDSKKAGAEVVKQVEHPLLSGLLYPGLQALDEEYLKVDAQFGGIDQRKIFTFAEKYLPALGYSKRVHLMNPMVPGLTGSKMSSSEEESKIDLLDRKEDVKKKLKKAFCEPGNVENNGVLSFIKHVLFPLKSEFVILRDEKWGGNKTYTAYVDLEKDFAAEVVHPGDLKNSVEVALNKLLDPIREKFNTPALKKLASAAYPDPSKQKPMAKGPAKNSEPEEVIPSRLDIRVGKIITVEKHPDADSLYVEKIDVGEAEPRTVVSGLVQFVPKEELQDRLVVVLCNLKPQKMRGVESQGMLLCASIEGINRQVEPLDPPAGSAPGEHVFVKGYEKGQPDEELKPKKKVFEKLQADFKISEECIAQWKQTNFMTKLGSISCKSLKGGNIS

T2: GST-TyrRS Δ153-156 fusion protein, full length (human, UniProt P54577 1-528, Δ153-156VKQV)
T2 sequence: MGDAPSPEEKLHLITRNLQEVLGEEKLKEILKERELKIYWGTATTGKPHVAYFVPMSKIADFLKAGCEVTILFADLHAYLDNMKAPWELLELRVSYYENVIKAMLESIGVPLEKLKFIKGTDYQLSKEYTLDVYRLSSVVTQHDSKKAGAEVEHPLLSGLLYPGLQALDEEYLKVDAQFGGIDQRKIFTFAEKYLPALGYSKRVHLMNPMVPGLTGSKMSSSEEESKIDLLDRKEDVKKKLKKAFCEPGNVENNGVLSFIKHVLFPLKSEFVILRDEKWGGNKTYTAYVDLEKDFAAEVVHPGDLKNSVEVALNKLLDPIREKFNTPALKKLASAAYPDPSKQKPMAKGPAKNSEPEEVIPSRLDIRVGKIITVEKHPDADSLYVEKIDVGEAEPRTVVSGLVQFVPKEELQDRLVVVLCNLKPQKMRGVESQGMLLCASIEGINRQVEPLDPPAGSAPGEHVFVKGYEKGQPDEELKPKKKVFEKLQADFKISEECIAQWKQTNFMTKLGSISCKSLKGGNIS

T3: GST-TyrRS E196K fusion protein, full length (human, UniProt P54577 1-528, E196K)
T3 sequence: T1 sequence with E196K

B1: full-length tyrosyl-tRNA synthetase G41R mutant (TyrRS^G41R), C-terminal hexahistidine tag (enzyme)
chain: T1 sequence with G41R
B2: full-length tyrosyl-tRNA synthetase E196K mutant (TyrRS^E196K), C-terminal hexahistidine tag (enzyme)
chain: T1 sequence with E196K
B3: full-length tyrosyl-tRNA synthetase, wild type (TyrRS^WT), C-terminal hexahistidine tag (enzyme)
chain: T1 sequence
B4: RBCC (aa 65–378 of TRIM28) (domain or fragment)
chain: CGVCRERLRPEREPRLLPCLHSACSACLGPAAPAAANSSGDGGAAGDGTVVDCPVCKQQCFSKDIVENYFMRDSGSKAATDAQDANQCCTSCEDNAPATSYCVECSEPLCETCVEAHQRVKYTKDHTVRSTGPAKSRDGERTVYCNVHKHEPLVLFCESCDTLTCRDCQLNAHKDHQYQFLEDAVRNQRKLLASLVKRLGDKHATLQKSTKEVRSSIRQVSDVQKRVQVDVKMAILQIMKELNKRGRVLVNDAQKVTEGQQERLERQHWTMTKIQKHQEHILRFASWALESDNNTALLLSKKLIYFQLHRALKM
B5: full-length tyrosyl-tRNA synthetase Δ153-156 deletion mutant (TyrRS^Δ153-156), C-terminal hexahistidine tag (enzyme)
chain: T2 sequence

Key:
[1] = target: the molecule itself; experiment: SAXS
[2] = target: the molecule itself; experiment: SEC
[3] = target: T1, GST-TyrRS fusion protein, wild type, …; experiment: BLI
[4] = target: T2, GST-TyrRS Δ153-156 fusion protein, full …; experiment: BLI
[5] = target: T3, GST-TyrRS E196K fusion protein, full …; experiment: BLI

| Binder | stoichiometry N [1] | Kd [2] [nM] | other results |
| --- | --- | --- | --- |
| B1 | 2 | ~200 |  |
| B2 | 2 |  |  |
| B3 |  | ~200 |  |
| B4 |  |  | binding result [3]: binds; fold increase in binding affinity against TyrRS^WT [4]: 5 fold; fold increase in binding affinity against TyrRS^WT [5]: 5 fold |
| B5 |  | ~200 |  |
